Results on two molecules are retold here after article PMC12583513, “Deciphering the molecular mechanism of the bacterial division motor TolQRA” (Cell Discovery, 2025).

Values joined by “and” are separate entries in the source; they are usually repeats but may differ in a detail not shown here. Equal entries are not always repeated.

Series [1] concerns the molecule itself. As to the kind of experiment: cryo-EM structure; TolQRA co-expressed, purified by the His tag of TolA in DDM/CHS then LMNG/CHS, reconstituted in MSP1D1 nanodiscs with E. coli total lipid extract; 20 mM Tris pH 7.8, 150 mM NaCl; classes with one, two or three TolA.
The target in the next series is T1, TolA (residues 34–421) (Escherichia coli K12, UniProt P19934 34-421, RED-tris-NTA dye on the His tag).
T1 construct: TolA of Escherichia coli K12, residues 34-421, amplified from genomic DNA into a modified pET28a; also called soluble TolA; TolA with the periplasmic loop TolA_β; source: E. coli BL21(DE3), purified (Ni-NTA column, desalting); not shown: 8x His, C-terminal, kept
T1 sequence (looked up): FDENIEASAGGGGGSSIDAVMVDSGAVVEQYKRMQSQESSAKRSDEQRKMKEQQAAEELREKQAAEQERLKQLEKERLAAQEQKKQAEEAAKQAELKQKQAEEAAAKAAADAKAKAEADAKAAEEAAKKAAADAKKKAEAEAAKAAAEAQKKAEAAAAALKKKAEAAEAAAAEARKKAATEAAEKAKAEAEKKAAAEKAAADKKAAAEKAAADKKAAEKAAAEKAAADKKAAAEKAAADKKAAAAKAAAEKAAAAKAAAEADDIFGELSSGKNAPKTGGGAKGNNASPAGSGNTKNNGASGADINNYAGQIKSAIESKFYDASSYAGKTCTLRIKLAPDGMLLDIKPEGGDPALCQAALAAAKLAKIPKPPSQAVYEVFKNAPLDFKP
As to the kind of experiment: MST; TolA labelled with RED-tris-NTA dye, fixed at 50 nM; TolR titrated in 16 points from 150 μM to 4.58 nM; 20 mM HEPES pH 7.8, 150 mM NaCl; 25 °C; Monolith NT.115. Conditions: both partners purified.

For a further series, the target named is T2, TolA (residues 58–421) (Escherichia coli K12, UniProt P19934 58-421, RED-tris-NTA dye on the His tag).
T2 construct: TolA of Escherichia coli K12, residues 58-421, amplified from genomic DNA into a modified pET28a; also called soluble TolA without TolA_β; source: E. coli BL21(DE3), purified (Ni-NTA column, desalting); not shown: 8x His, C-terminal, kept
T2 sequence (looked up): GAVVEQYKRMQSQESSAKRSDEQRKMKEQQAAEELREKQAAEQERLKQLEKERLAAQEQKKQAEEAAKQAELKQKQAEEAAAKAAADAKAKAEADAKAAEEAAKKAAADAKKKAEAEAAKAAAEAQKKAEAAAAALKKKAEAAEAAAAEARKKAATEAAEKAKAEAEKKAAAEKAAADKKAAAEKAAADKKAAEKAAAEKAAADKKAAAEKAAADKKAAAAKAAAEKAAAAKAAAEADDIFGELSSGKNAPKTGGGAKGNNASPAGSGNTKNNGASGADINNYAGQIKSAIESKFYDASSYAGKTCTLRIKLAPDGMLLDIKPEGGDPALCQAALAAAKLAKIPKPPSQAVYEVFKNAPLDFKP
Described as above. The following applies: both partners purified.

B1: TolQ (natural protein, Escherichia coli (strain K12))
chain: MTDMNILDLFLKASLLVKLIMLILIGFSIASWAIIIQRTRILNAAAREAEAFEDKFWSGIELSRLYQESQGKRDNLTGSEQIFYSGFKEFVRLHRANSHAPEAVVEGASRAMRISMNRELENLETHIPFLGTVGSISPYIGLFGTVWGIMHAFIALGAVKQATLQMVAPGIAEALIATAIGLFAAIPAVMAYNRLNQRVNKLELNYDNFMEEFTAILHRQAFTVSESNKG
notes: TolQ of Escherichia coli strain K12; the operon encoding TolQRA was cloned into pTRC99a; no tag on TolQ in this construct; The whole tolQRA operon was cloned, so the whole gene is implied; a minor hexameric class (six TolQ subunits) was also seen; also called TolQ1; TolQ2; source: E. coli C43 (DE3), co-expressed from pTRC99a-TolQR(Strep)A(His), purified as complex (HisTrap + Superdex 200, …)
Take B1: the stoichiometry N (usually a count of units in the complex or per binding partner) in series [1] is 5 and 6.

B2: TolR (residues 60–133) (domain or fragment, Escherichia coli K12, UniProt P0ABV6 60-133, looked up)
chain: DNPPVIVEVSGIGQYTVVVEKDRLERLPPEQVVAEVSSRFKANPKTVFLIGGAKDVPYDEIIKALNLLHSAGVK
notes: TolR of Escherichia coli K12, residues 60-133 of the periplasmic domain, amplified from genomic DNA into a modified pET28a; also called TolR^60–133; TolR lacking both β1/α1 and β6; source: E. coli BL21(DE3), purified (Strep-Tactin column, desalting)
Take B2: the binding result in the series with TolA (residues 34–421) and in the series with TolA (residues 58–421) was “binds” throughout.
